Source: patent US20240261333A1 (published 2024)

Columns and labels:
Assay in all cases: anti-FLAG co-IP from lysate of N-FLAG B3GNT2 cells, mass spectrometry
[1] = biological target: T1, ABCD1 (human, UniProt P33897 1-745)
T1 construct: also called NP_000024.2

[2] = biological target: T2, ATAD3A (human, UniProt Q9NVI7 2-586)
T2 construct: also called NP_001164006.1 (+2)
T2 sequence (looked up): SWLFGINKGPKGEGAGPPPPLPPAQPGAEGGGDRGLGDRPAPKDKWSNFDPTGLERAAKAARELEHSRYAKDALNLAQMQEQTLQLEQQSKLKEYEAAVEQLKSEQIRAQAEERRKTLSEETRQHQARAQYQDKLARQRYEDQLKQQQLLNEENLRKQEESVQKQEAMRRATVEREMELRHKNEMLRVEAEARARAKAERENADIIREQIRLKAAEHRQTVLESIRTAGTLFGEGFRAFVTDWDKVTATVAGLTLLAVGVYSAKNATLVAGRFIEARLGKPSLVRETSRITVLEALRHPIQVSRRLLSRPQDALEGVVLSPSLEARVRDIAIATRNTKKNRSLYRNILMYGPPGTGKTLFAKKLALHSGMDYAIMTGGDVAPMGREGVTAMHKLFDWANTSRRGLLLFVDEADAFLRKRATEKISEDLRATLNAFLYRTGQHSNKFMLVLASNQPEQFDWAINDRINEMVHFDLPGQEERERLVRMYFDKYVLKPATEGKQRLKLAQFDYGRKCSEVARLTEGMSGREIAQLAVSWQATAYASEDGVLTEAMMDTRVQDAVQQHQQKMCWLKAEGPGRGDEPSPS

[3] = biological target: T3, SFXN3 (human, UniProt Q9BWM7 1-321)
T3 construct: also called NP_112233.2
T3 sequence (looked up): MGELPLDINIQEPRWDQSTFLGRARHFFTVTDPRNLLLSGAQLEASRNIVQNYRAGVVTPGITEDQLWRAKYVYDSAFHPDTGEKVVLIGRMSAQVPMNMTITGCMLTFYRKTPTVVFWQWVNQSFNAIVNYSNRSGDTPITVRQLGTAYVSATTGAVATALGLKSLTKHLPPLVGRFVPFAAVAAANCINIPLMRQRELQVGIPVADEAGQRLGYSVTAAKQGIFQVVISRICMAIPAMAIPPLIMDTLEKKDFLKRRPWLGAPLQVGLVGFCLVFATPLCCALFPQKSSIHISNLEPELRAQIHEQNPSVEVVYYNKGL

[4] = biological target: T4, HDGFL2 (human, UniProt Q7Z4V5 1-671)
T4 construct: also called NP_001001520.1 (+4)

[5] = biological target: T5, ELOC (human, UniProt Q15369 1-112)
T5 construct: also called NP_001191791.1

Measured: co-IP mass spectrometry count

T4 sequence (Q7Z4V5 whole entry): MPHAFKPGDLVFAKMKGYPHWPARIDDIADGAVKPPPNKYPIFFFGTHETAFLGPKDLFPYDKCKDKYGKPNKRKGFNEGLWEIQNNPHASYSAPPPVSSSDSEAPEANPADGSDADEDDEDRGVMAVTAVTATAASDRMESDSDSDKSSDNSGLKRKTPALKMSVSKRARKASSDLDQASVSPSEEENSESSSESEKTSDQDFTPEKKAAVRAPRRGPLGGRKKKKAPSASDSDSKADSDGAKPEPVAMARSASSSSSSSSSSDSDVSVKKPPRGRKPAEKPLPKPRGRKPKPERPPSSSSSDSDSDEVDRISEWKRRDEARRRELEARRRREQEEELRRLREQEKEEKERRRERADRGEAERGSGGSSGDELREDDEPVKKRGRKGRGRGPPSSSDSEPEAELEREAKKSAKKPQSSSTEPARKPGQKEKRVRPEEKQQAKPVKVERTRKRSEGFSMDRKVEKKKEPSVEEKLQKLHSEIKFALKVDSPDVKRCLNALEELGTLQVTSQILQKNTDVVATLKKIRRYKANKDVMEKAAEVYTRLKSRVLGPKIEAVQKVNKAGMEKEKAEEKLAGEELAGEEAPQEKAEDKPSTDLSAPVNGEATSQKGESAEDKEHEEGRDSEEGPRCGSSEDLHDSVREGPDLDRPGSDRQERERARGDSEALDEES
T5 sequence (Q15369 whole entry): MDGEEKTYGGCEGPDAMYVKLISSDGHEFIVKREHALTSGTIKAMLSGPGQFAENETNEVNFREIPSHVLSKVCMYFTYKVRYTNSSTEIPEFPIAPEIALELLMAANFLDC
T1 sequence (P33897 whole entry): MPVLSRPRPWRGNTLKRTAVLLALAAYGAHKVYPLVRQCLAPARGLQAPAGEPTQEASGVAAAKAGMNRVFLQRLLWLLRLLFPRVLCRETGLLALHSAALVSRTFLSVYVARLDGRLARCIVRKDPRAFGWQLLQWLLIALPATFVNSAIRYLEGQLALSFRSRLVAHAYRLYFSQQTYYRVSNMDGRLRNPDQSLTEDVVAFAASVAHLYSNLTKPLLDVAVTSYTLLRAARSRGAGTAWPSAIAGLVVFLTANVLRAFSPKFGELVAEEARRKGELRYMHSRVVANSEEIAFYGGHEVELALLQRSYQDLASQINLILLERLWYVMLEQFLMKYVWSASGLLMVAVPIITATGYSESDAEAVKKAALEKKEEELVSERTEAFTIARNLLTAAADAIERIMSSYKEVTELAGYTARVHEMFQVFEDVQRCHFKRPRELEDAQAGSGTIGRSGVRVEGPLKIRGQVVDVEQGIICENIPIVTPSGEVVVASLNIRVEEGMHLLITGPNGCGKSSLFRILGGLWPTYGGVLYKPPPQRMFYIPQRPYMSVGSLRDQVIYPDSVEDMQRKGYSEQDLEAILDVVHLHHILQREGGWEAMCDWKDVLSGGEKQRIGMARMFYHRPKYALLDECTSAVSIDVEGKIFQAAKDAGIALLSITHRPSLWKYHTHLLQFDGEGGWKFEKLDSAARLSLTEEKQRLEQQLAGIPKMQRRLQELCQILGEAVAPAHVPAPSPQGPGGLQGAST

B1: N-terminal FLAG tagged B3GNT2 (enzyme, human, UniProt Q9NY97 1-397, looked up)
chain: MSVGRRRIKLLGILMMANVFIYFIMEVSKSSSQEKNGKGEVIIPKEKFWKISTPPEAYWNREQEKLNRQYNPILSMLTNQTGEAGRLSNISHLNYCEPDLRVTSVVTGFNNLPDRFKDFLLYLRCRNYSLLIDQPDKCAKKPFLLLAIKSLTPHFARRQAIRESWGQESNAGNQTVVRVFLLGQTPPEDNHPDLSDMLKFESEKHQDILMWNYRDTFFNLSLKEVLFLRWVSTSCPDTEFVFKGDDDVFVNTHHILNYLNSLSKTKAKDLFIGDVIHNAGPHRDKKLKYYIPEVVYSGLYPPYAGGGGFLYSGHLALRLYHITDQVHLYPIDDVYTGMCLQKLGLVPEKHKGFRTFDIEEKNKNNICSYVDLMLVHSRKPQEMIDIWSQLQSAHLKC
notes: Bait of the co-IP; pulled down from cell lysate with mouse anti-FLAG antibody; also called N-FLAG B3GNT2; N-term FLAG; not shown: N-terminal FLAG tag
0: all assays above
